Measurements published in publication PMC6382783.
One block for each substance: values may come before it.

Key:
[1] = target: ThiS-YbeA-ssrA (Archaeoglobus fulgidus | Escherichia coli | not stated); experiment: SEC; analytical SEC on an S200 10/300 GL column, 0.5-1 mL/min, molecular mass from Kav against a calibration curve of low molecular weight standards
[2] = target: ClpXP (ClpXΔN6 with ClpP14) (Escherichia coli | E. coli) (UniProt P0A6H1)
[3] = target: YbeA-ssrA (Escherichia coli | not stated); experiment: SEC; analytical SEC on an S200 10/300 GL column, 0.5-1 mL/min, molecular mass from Kav against a calibration curve of low molecular weight standards

stoichiometry N [1]: 2
Substance: ThiS-YbeA-ssrA

degradation of PR65/A-ssrA by ClpXP in competition with equimolar UCH-L1-ssrA (5 µM each), SDS-PAGE and densitometry [2]: 2 fold
Substance: UCH-L1-ssrA (enzyme)

stoichiometry N [3]: 2
Substance: YbeA-ssrA (enzyme)
